T1: FZD3 cysteine-rich domain (CRD), MYC-tagged and GPI-anchored on CHO cells (human, UniProt Q9NPG1 24-150, GPI anchor)
T1 construct: domain: cysteine-rich domain (CRD); also called FZD3 CRD; CHO-myc-FZDGPI; not shown: MYC tag and GPI anchor signal
T1 sequence (looked up): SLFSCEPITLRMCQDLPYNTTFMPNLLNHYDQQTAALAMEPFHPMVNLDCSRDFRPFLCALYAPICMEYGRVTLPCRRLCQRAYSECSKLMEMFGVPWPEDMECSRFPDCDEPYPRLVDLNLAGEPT

T2: FZD10 cysteine-rich domain (CRD), MYC-tagged and GPI-anchored on CHO cells (human, UniProt Q9ULW2 30-156, GPI anchor)
T2 construct: also called FZD10 CRD; CHO-myc-FZDGPI; not shown: MYC tag and GPI anchor signal
T2 sequence: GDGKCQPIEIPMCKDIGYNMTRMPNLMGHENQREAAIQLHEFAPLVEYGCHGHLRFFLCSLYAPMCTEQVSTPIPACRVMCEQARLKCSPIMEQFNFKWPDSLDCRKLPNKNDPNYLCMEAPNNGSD

T3: FZD4 cysteine-rich domain (CRD), MYC-tagged and GPI-anchored on CHO cells (human, UniProt Q9ULV1 42-167, GPI anchor)
T3 construct: also called FZD4 CRD; CHO-myc-FZDGPI; not shown: MYC tag and GPI anchor signal
T3 sequence: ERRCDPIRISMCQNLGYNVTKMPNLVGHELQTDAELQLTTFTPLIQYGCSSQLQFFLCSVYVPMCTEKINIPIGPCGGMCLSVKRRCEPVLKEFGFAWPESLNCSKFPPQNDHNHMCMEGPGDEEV

T4: FZD6 cysteine-rich domain (CRD), MYC-tagged and GPI-anchored on CHO cells (human, UniProt O60353 20-146, GPI anchor)
T4 construct: also called FZD6 CRD; CHO-myc-FZDGPI; not shown: MYC tag and GPI anchor signal
T4 sequence: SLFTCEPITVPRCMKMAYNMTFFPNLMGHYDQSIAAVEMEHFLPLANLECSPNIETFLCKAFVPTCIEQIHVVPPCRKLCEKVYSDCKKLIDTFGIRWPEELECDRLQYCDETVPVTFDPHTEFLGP

T5: FZD9 cysteine-rich domain (CRD), MYC-tagged and GPI-anchored on CHO cells (human, UniProt O00144 35-161, GPI anchor)
T5 construct: also called FZD9 CRD; CHO-myc-FZDGPI; not shown: MYC tag and GPI anchor signal
T5 sequence: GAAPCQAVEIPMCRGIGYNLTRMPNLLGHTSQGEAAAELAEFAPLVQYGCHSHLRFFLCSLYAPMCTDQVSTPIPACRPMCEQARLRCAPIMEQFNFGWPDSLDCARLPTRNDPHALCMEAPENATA

T6: FZD5 cysteine-rich domain (CRD), MYC-tagged and GPI-anchored on CHO cells (human, UniProt Q13467 29-156, GPI anchor)
T6 construct: also called FZD5 CRD; CHO-myc-FZDGPI; not shown: MYC tag and GPI anchor signal
T6 sequence: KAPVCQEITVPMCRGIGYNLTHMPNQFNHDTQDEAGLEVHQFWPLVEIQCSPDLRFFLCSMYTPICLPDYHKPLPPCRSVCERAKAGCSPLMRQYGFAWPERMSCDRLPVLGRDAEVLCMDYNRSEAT

T7: FZD8 cysteine-rich domain (CRD), MYC-tagged and GPI-anchored on CHO cells (human, UniProt Q498S8 31-155 (rat entry), GPI anchor)
T7 construct: also called FZD8 CRD; CHO-myc-FZDGPI; not shown: MYC tag and GPI anchor signal
T7 sequence: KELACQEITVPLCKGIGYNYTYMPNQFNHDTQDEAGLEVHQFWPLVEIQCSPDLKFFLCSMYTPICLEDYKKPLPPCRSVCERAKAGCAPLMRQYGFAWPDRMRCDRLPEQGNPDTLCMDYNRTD

B1: Fab-2934 (Fab, V domains shown)
VH: EVQLVESGGGLVQPGGSLRLSCAASGFNISYSYMHWVRQAPGKGLEWVASIYSSSGSTSYADSVKGRFTISADTSKNTAYLQMNSLRAEDTAVYYCARGAIDYWGQGTLVTVSS
VL: DIQMTQSPSSLSASVGDRVTITCRASQSVSSAVAWYQQKPGKAPKLLIYSASSLYSGVPSRFSGSRSGTDFTLTISSLQPEDFATYYCQQWYHYGLITFGQGTKVEIK
notes: Fab; also called Fv-2934
B2: Fab-2918 (Fab, V domains shown)
VH: EVQLVESGGGLVQPGGSLRLSCAASGFNLSYSSIHWVRQAPGKGLEWVASIYSSYSSTSYADSVKGRFTISADTSKNTAYLQMNSLRAEDTAVYYCARFGYWAIDYWGQGTLVTVSS
VL: DIQMTQSPSSLSASVGDRVTITCRASQSVSSAVAWYQQKPGKAPKLLIYSASSLYSGVPSRFSGSRSGTDFTLTISSLQPEDFATYYCQQAFGASLFTFGQGTKVEIK
notes: Fab; also called Fv-2918
B3: Fab-2906 (Fab, V domains shown)
VH: EVQLVESGGGLVQPGGSLRLSCAASGFNFSSSSIHWVRQAPGKGLEWVAYISSSYGYTYYADSVKGRFTISADTSKNTAYLQMNSLRAEDTAVYYCARTVRGSKKPYFSGWAMDYWGQGTLVTVSS
VL: DIQMTQSPSSLSASVGDRVTITCRASQSVSSAVAWYQQKPGKAPKLLIYSASSLYSGVPSRFSGSRSGTDFTLTISSLQPEDFATYYCQQWSWGFLITFGQGTKVEIK
notes: Fab; also called Fv-2906
B4: Fab-2923 (Fab, V domains shown)
VH: EVQLVESGGGLVQPGGSLRLSCAASGFNLYYYYMHWVRQAPGKGLEWVASIYSSSGSTSYADSVKGRFTISADTSKNTAYLQMNSLRAEDTAVYYCARGAMDYWGQGTLVTVSS
VL: DIQMTQSPSSLSASVGDRVTITCRASQSVSSAVAWYQQKPGKAPKLLIYSASSLYSGVPSRFSGSRSGTDFTLTISSLQPEDFATYYCQQWYGYSALITFGQGTKVEIK
notes: Fab; also called Fv-2923
B5: Fab-2902 (Fab, V domains shown)
VH: EVQLVESGGGLVQPGGSLRLSCAASGFNISYYYIHWVRQAPGKGLEWVASISSSSSSTSYADSVKGRFTISADTSKNTAYLQMNSLRAEDTAVYYCARGALDYWGQGTLVTVSS
VL: DIQMTQSPSSLSASVGDRVTITCRASQSVSSAVAWYQQKPGKAPKLLIYSASSLYSGVPSRFSGSRSGTDFTLTISSLQPEDFATYYCQQWYAFGALITFGQGTKVEIK
notes: Fab; also called Fv-2902
B6: Fab-2909 (Fab, V domains shown)
VH: EVQLVESGGGLVQPGGSLRLSCAASGFNISSSYMHWVRQAPGKGLEWVASISSSSGYTSYADSVKGRFTISADTSKNTAYLQMNSLRAEDTAVYYCARTVRGSKKPYFSGWAMDYWGQGTLVTVSS
VL: DIQMTQSPSSLSASVGDRVTITCRASQSVSSAVAWYQQKPGKAPKLLIYSASSLYSGVPSRFSGSRSGTDFTLTISSLQPEDFATYYCQQSWSYHYLITFGQGTKVEIK
notes: Fab; also called Fv-2909

Tests used:
[1] = molecular target: T1, FZD3 cysteine-rich domain (CRD), …; test: immunofluorescence, CHO-CRD cells
[2] = molecular target: T8, FZD7 cysteine-rich domain (CRD), MYC-tagged and GPI-anchored on CHO cells (human, UniProt O75084 45-169); test: immunofluorescence, CHO-CRD cells
[3] = molecular target: T2, FZD10 cysteine-rich domain (CRD), …; test: immunofluorescence, CHO-CRD cells
[4] = molecular target: T3, FZD4 cysteine-rich domain (CRD), …; test: immunofluorescence, CHO-CRD cells
[5] = molecular target: T4, FZD6 cysteine-rich domain (CRD), …; test: immunofluorescence, CHO-CRD cells
[6] = molecular target: T5, FZD9 cysteine-rich domain (CRD), …; test: immunofluorescence, CHO-CRD cells
[7] = molecular target: T1, FZD3 cysteine-rich domain (CRD), …; test: flow cytometry, CHO-CRD cells;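 also: flow cytometry of Fab binding to CHO cells overexpressing a Frizzled CRD, with binding defined as median fluorescence over twice that of CHO cells lacking any Frizzled CRD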
Experimental: (§1) Binding was measured via flow cytometry analysis of CHO cells overexpressing CRD of FZD1, FZD2, FZD3, FZD4, FZD5, FZD6, FZD7, FZD8, FZD9 or FZD10. Median fluorescence values are shown.

[8] = molecular target: T6, FZD5 cysteine-rich domain (CRD), …; test: flow cytometry, CHO-CRD cells;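 also: flow cytometry of Fab binding to CHO cells overexpressing a Frizzled CRD, with binding defined as median fluorescence over twice that of CHO cells lacking any Frizzled CRD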
Experimental: as §1

[9] = molecular target: T8, FZD7 cysteine-rich domain (CRD), …; test: flow cytometry, CHO-CRD cells;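 also: flow cytometry of Fab binding to CHO cells overexpressing a Frizzled CRD, with binding defined as median fluorescence over twice that of CHO cells lacking any Frizzled CRD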
Experimental: as §1

[10] = molecular target: T2, FZD10 cysteine-rich domain (CRD), …; test: flow cytometry, CHO-CRD cells;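 also: flow cytometry of Fab binding to CHO cells overexpressing a Frizzled CRD, with binding defined as median fluorescence over twice that of CHO cells lacking any Frizzled CRD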
Experimental: as §1

[11] = molecular target: T7, FZD8 cysteine-rich domain (CRD), …; test: flow cytometry, CHO-CRD cells
Experimental: as §1

[12] = molecular target: T3, FZD4 cysteine-rich domain (CRD), …; test: flow cytometry, CHO-CRD cells
Experimental: as §1

[13] = molecular target: T4, FZD6 cysteine-rich domain (CRD), …; test: flow cytometry, CHO-CRD cells
Experimental: as §1

[14] = molecular target: T5, FZD9 cysteine-rich domain (CRD), …; test: flow cytometry, CHO-CRD cells
Experimental: as §1

[15] = molecular target: T9, FZD1 cysteine-rich domain (CRD), MYC-tagged and GPI-anchored on CHO cells (human); test: flow cytometry, CHO-CRD cells
Experimental: as §1

[16] = molecular target: T10, FZD2 cysteine-rich domain (CRD), MYC-tagged and GPI-anchored on CHO cells (human, UniProt Q14332 35-161); test: immunofluorescence, CHO-CRD cells
[17] = molecular target: T10, FZD2 cysteine-rich domain (CRD), …; test: flow cytometry, CHO-CRD cells
Experimental: as §1

[18] = molecular target: T9, FZD1 cysteine-rich domain (CRD), …; test: immunofluorescence, CHO-CRD cells

Binder | binding result [1] | binding result [2] | binding result [3] | binding result [4] | binding result [5] | binding result [6] | median fluorescence [7] | median fluorescence [8] | median fluorescence [9] | median fluorescence [10] | median fluorescence [11] | median fluorescence [12] | median fluorescence [13] | median fluorescence [14] | median fluorescence [15] | binding result [16] | median fluorescence [17] | binding result [18]
B1 | no binding | no binding | no binding | no binding | no binding | no binding | 3.28 | 34.3 | 3.52 | 2.67 | 29.4 | 4.78 | 2.86 | 2.71 | 61.5 |  |  | 
B2 | no binding |  | no binding | no binding | no binding | no binding | 3.55 | 29.2 | 7.5 | 2.81 | 7.57 | 4.07 | 2.69 | 3.11 |  | no binding | 4.41 | 
B3 | no binding |  |  |  | no binding | no binding | 4.03 | 30.2 | 2.92 | 19.8 | 10.1 |  | 3.55 | 5.05 | 5.23 | no binding | 5.09 | no binding
B4 | no binding | no binding | no binding |  | no binding | no binding | 6.67 | 36.9 | 6.04 | 4.22 | 11.9 |  | 4.33 | 4.83 | 6.04 | no binding | 7.91 | no binding
B5 | no binding |  | no binding |  | no binding | no binding | 6.44 | 36.9 | 16 | 4.1 | 13.9 |  | 4 | 3.96 | 6.1 | no binding | 8.98 | no binding
B6 | no binding |  | no binding | no binding | no binding | no binding | 3.43 | 31.3 | 4.57 | 2.71 |  | 4.1 | 2.89 | 2.57 | 4.61 | no binding | 5.38 | no binding
